Measurements reported in publication PMC7253180, “A CLC-ec1 mutant reveals global conformational change and suggests a unifying mechanism for the CLC Cl^–/H^+ transport cycle” (eLife, 2020).
Numbering of substitutions follows the chain as printed. In names and notes the source's numbering stands.

B1: CLC-ec1 QQQ mutant (E148Q/E203Q/E113Q) (natural protein, E. coli)
chain: MKTDTPSLETPQAARLRRRQLIRQLLERDKTPLAILFMAAVVGTLVGLAAVAFDKGVAWLQNQRMGALVHTADNYPLLLTVAFLCSAVLAMFGYFLVRKYAPEAGGSGIPEIQGALEDQRPVRWWRVLPVKFFGGLGTLGGGMVLGRQGPTVQIGGNIGRMVLDIFRLKGDEARHTLLATGAAAGLAAAFNAPLAGILFIIEQMRPQFRYTLISIKAVFIGVIMSTIMYRIFNHEVALIDVGKLSDAPLNTLWLYLILGIIFGIFGPIFNKWVLGMQDLLHRVHGGNITKWVLMGGAIGGLCGLLGFVAPATSGGGFNLIPIATAGNFSMGMLVFIFVARVITTLLCFSSGAPGGIFAPMLALGTVLGTAFGMVAVELFPQYHLEAGTFAIAGMGALLAASIRAPLTGIILVLEMTDNYQLILPMIITGLGATLLAQFTGGKPLYSAILARTLAKQEAEQLARSKAAS
notes: CLC-ec1, prokaryotic (E. coli) CLC Cl-/H+ exchange transporter, from plasmid pASK-CLC-ec1; Helix A (N-terminal) has no density in the model; also called ClC-ec1 triple mutant (E113Q, E148Q, E203Q)
B2: D417C/QQQ CLC-ec1 (cysteine-less background), spin-labeled (natural protein, E. coli)
chain: B1 chain with C85A, C302A, C347S, D417C
modifications: MTSSL spin label on the substituted cysteine at 417
notes: CLC-ec1, prokaryotic (E. coli) CLC Cl-/H+ exchange transporter, from plasmid pASK-CLC-ec1; Helix P; source: purified under reducing conditions, then labeled with MTSSL
B3: WT CLC-ec1 (cysteine-less background) D417C, spin-labeled (natural protein, E. coli)
chain: MKTDTPSLETPQAARLRRRQLIRQLLERDKTPLAILFMAAVVGTLVGLAAVAFDKGVAWLQNQRMGALVHTADNYPLLLTVAFLASAVLAMFGYFLVRKYAPEAGGSGIPEIEGALEDQRPVRWWRVLPVKFFGGLGTLGGGMVLGREGPTVQIGGNIGRMVLDIFRLKGDEARHTLLATGAAAGLAAAFNAPLAGILFIIEEMRPQFRYTLISIKAVFIGVIMSTIMYRIFNHEVALIDVGKLSDAPLNTLWLYLILGIIFGIFGPIFNKWVLGMQDLLHRVHGGNITKWVLMGGAIGGLAGLLGFVAPATSGGGFNLIPIATAGNFSMGMLVFIFVARVITTLLSFSSGAPGGIFAPMLALGTVLGTAFGMVAVELFPQYHLEAGTFAIAGMGALLAASIRAPLTGIILVLEMTCNYQLILPMIITGLGATLLAQFTGGKPLYSAILARTLAKQEAEQLARSK
modifications: MTSSL spin label on the substituted cysteine at 417
notes: as for B2

What was measured:
[1] = biological target: the molecule itself; assay: crystal structure; lipidic cubic phase (monoolein with 10% cholesterol), without any antibody Fab fragment; 100 mM Tris pH 8.5, 100 mM sodium malonate, 30% PEG 400, 2.5% MPD; 16°C
[2] = biological target: the molecule itself; assay: DEER spectroscopy; one MTSSL spin label per subunit, inter-subunit distance distributions; pH 7.5 and pH 4.5; 83 K, Q-band; four-pulse protocol (five-pulse for position 374)

Protein | binding result [1] | binding result [2]
B1 | binds | 
B2 |  | binds
B3 |  | binds
